Source: patent US20170173105A1, “AUTOASSEMBLING PEPTIDES FOR THE TREATMENT OF PULMONARY LEAKAGE” (3-D MATRIX, LTD., priority 2014, published 2017)

What was measured:
Assay type in all cases: physicochemical
[1] = Rheological measurements of RADA16 mixed with salts (stiffness, reversibility, gelation kinetics); conditions: for gelation kinetics by ion: 0.5% RADA16; for storage modulus: (RADA)4 about 0.5 w/v percent
Protocol: In a rheological comparison of 2.5% RADA16 and 2.5% RADA16+NaCl, KCl, and CaCl2, solutions of 0.5% RADA16 mixed with 0.005, 0.05, 0.125, 0.25, 0.5, and 1 M NaCl, KCl, and CaCl2 were prepared. The anion, chloride (Cl—), was kept the same to observe the effect of the cations, sodium (Na+), potassium (K+), and calcium (Ca2+). FIG. 21 provides a basic understanding of how varying the cations of a salt solution effects the viscoelastic properties and the stiffness of self-assembling peptides. […] This should be because Ca has […] higher ionic strength than Na and K at the same molar concentrations. Therefore, influence of salts on the peptide solution is more related to their ionic strength rather than their molar concentration, as shown in FIGS. 17-18 and Table 2a-c. In some embodiments, there is a correlation between the properties of the peptide solutions with salts based on the concentration of the salts.
Rheological measurements of stiffness of 2.5% RADA16 and 2.5% RADA16+0.25 M CaCl2 was evaluated.
Rheological measurements of reversibility of 0.5% RADA16 solution with +0.125, 0.25, and 0.5 M CaCl2 were evaluated. Solutions of 0.5% RADA16 mixed with 0.125, 0.25, and 0.5 M CaCl2 were prepared. The structure of the self-assembled peptide solution were disrupted thoroughly by application of mechanical stress through vortexing and sonication. The mixtures were placed at room temperature for 48 hours to allow self-assembly to take place. […] FIG. 23a presents raw rheological data of the control peptide solution with salts and the perturbed peptide solutions with salts while FIG. 23b provides a comparison of stiffness of the control peptide solutions and the perturbed peptide solutions.
Rheological measurements of gelation kinetics of 0.5% RADA16+NaCl, KCl, and CaCl2 were evaluated. A solution of 0.5% RADA16 was prepared and gelation kinetics were observed by treatment with several cations (e.g. Na, […], K) and anions (e.g. Cl, CO3, PO4, SO4). It was determined how long it will take for the peptide mixtures to gel and how to control that gelation time by varying the cation/anion type and concentration. […] In vivo and in vitro qualitative experiments and the resulting observations were supportive of these conclusions.
Due to the success of topically added solution of NaCl gently massaged into 2.5% RADA16 increasing the burst pressure of 2.5% RADA16, other salt based solutions were completely mixed with RADA16 and their mechanical properties were measured. […] The results can be seen in FIG. 29 with respect to the storage modulus (i.e. mechanical strength) of 0.5% PuraMatrix (RADA16) mixed with NaCl, KCl, or CaCl2 at varying concentrations.

[2] = as above; conditions: (RADA)4 about 2.5 w/v percent; calcium chloride about 0.125 M
[3] = Rheological properties of peptide solutions (1%) before and after DMEM treatment (rheometer); conditions: DMEM 2 minutes, compared with weaker peptide solutions (i.e. PuraMatrix®)
Protocol: The effects of Dulbecco's modified Eagle's medium (DMEM) (pH 7.4) on the rheological properties of IEIK13, KLD12, and PuraMatrix® were evaluated on a rheometer (AR500, TA Instruments) with 40 mm plates. DMEM is generally a cell culture medium that contains 6.4 g/L of NaCl, 3.4 g/L NaHCO3 (sodium bicarbonate), minor amounts of other salts, various amino acids, and 4.5 g/L of glucose. The pH level of DMEM is generally 7.2±0.2 and the osmolality is 335±30 mOsm/Kg H2O; both measurements are close to human physiological fluids such as blood.
Peptide solutions (1%) were kept at 4° C. for at least 48 hours before testing. To perform the experiment, 1 mL of peptide solution was gently pipetted and placed on the plate of the rheometer. 2 mL of DMEM solution was gently added around the peptide solution. The peptide solution was treated with DMEM for two minutes, then the media was removed, and the plates were placed at a measuring geometry gap at around 450 μm. Measurements were performed at 37° C. after 2 min of relaxation time. Frequency tests were performed from 1 rad/s to 100 rad/s at 1 Pa of oscillation stress.
The rheological properties of the peptides (1%) were compared before and after DMEM treatment for 2 minutes, as shown in FIG. 1A. […]

| Substance | mechanical properties (storage modulus) with calcium chloride compared with sodium chloride or potassium chloride ([1]; 0.5% PuraMatrix (RADA16) mixed with salts at varying concentrations) | gelation kinetics by ion ([1]; treatment with chlorine) | gelation kinetics by ion ([1]; treatment with sulfate) | reversibility after perturbation ([1]; 0.5% RADA16 with CaCl2 within the optimal salt concentration range, vortexing and sonication, 48 hours room temperature) | stiffness with added CaCl2 compared with peptide alone ([1]; 2.5% RADA16 vs 2.5% RADA16 with CaCl2 (0.25 M / 0.125 M printed)) | storage modulus ([1]; calcium chloride about 0.125 M) | storage modulus ([1]; calcium chloride about 0.250 M) | storage modulus ([1]; calcium chloride about 0.500 M) | enhancement of stiffness by cations ([1]; RADA16 mixed with NaCl, KCl, CaCl2 at the same molar concentrations (0.005-1 M)) | storage modulus [2] | fold increase of storage modulus after DMEM treatment [3] |
| --- | --- | --- | --- | --- | --- | --- | --- | --- | --- | --- | --- |
| Arg-Ala-Asp-Ala-Arg-Ala-Asp-Ala-Arg-Ala-Asp-Ala-Arg-Ala-Asp-Ala [PuraMatrix ®] | greater mechanical properties | quickest gelation | slowest gelation | remained reversible | noticeable increase in stiffness | about 25 Pa | about 44 Pa | about 52 Pa | Ca provided the best enhancement of stiffness | about 600 Pa |  |
| Ile-Glu-Ile-Lys-Ile-Glu-Ile-Lys-Ile-Glu-Ile-Lys-Ile [IEIK13] |  |  |  |  |  |  |  |  |  |  | lower-fold increase |
